Test results reported in article PMC7352223 (2020).
No end group written: not given here.

T1: S100A1 (Homo sapiens, UniProt P23297)
T1 chain: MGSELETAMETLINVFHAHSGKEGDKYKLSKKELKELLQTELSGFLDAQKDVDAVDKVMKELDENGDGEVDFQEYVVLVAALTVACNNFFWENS


Tests used:
[1] = target: Calmodulin (Homo sapiens, UniProt P0DP23); assay: fluorescence anisotropy
[2] = target: T1, S100A1; assay: fluorescence anisotropy

Kd [1] [nM] | Kd [2] [nM] | Binder
2600 | 12000 | PFIVISHLRLLLRQLCRRPRS (also: Ca2+) [TRPM4 (M4ct_WT)]
1300 | 2700 | FGECYRSSEVRAARLLLRRCPL (cysteine pairing not given here; also: Ca2+) [TRPM4 (M4nt_WT)]
